Measurements taken from PMC3125217.

Assays:
Assay in all cases: inhibition of PE/PC monolayer binding (surface pressure, Wilhelmy technique); spectrin polypeptides preincubated 30 min at room temperature with ankSBD, then injected under a PE/PC 3:2 monolayer; 5 mM Tris/HCl pH 7.5, 0.5 mM EDTA, 150 mM NaCl, 0.5 mM dithiothreitol, 1 mM NaN3; 21°C
[1] = target: ankBDn triple mutant CLSC (W1771C, M1778S, W1779C) (UniProt P11277)
[2] = target: recombinant ankyrin-binding domain of erythroid β-spectrin (ankBDn), wild type (UniProt P11277)
[3] = target: ankBDn triple mutant SSSW (W1771S, L1775S, M1778S) (UniProt P11277)

recombinant spectrin-binding domain of erythrocyte ankyrin (ankSBD) (from UniProt P16157 1-1881) (domain or fragment)
Ki [1]: 0.17 nM | Ki [2]: 0.15 nM | Ki [3]: 0.2 nM
